Results on 1 molecule are retold here after article PMC5166498 (The Journal of Cell Biology, 2016).

This assay addresses T1, 6×His::UNC-84(912–1,111) (C. elegans, UniProt Q20745 912-1111).
T1 sequence (looked up): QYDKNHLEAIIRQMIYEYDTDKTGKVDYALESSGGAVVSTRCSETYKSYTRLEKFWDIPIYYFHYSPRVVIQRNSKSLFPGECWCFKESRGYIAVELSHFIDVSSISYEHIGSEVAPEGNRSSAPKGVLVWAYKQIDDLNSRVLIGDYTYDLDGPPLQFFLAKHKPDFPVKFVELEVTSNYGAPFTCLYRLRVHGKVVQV
Kind of assay: SEC. Background: In gel filtration, larger molecules generally elute earlier.

B1: MBP::ZYG-12(749–777) (domain or fragment, C. elegans, UniProt Q23529 749-777, looked up)
chain: ASILVLGFLVFIAWMFININSALNAPPNA
For B1, the binding result was “binds”.
